Measurements taken from patent US20210198377A1 (XDCEXPLORER SHANGHAI, published 2021).

T1: human TPBG (full length, on cells) (human, UniProt Q13641 32-420)
T1 construct: whole, on cells; On transfected HEK293 or CHO-K1 cells; for the tumour lines NCI-H1568 and NCI-H1299 it is the cells' own TPBG; also called hTPBG; 5T4
T1 sequence (looked up): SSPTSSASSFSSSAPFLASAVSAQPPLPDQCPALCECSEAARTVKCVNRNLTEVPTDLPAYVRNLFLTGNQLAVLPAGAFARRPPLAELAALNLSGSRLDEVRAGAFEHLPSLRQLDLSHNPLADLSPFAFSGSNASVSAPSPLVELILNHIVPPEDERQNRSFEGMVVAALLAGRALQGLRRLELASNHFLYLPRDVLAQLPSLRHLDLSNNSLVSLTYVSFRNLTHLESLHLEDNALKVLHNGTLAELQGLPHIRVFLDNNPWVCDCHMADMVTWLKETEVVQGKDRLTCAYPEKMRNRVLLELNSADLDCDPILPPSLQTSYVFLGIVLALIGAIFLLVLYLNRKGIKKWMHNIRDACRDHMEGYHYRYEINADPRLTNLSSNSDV

T2: human TPBG-hFc (human, UniProt Q13641 32-355)
T2 construct: also called immunogen A; hFc tagged TPBG protein; not shown: The human IgG Fc fragment of the pCpC vector (Invitrogen V044-50) and any linker to it
T2 sequence: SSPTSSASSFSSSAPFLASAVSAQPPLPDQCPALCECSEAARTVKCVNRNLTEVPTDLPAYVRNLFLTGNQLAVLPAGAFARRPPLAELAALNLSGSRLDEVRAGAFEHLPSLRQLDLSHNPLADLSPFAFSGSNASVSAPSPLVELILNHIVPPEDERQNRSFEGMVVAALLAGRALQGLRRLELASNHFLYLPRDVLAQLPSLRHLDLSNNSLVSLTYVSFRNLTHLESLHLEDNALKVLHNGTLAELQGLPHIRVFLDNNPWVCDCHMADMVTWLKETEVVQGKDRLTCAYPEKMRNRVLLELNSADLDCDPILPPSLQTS


Legend:
[1] = biological target: T1, human TPBG (full length, on cells); assay: FACS on CHO-K1-hTPBG cells
Description: The stable cell lines CHO-k1-hTPBG, CHO-k1-cTPBG, CHO-k1-mTPBG (i.e. the CHO-k1-hTPBG 3A2F1, CHO-k1-cTPBG 3F13G4 and CHO-k1-mTPBG 3A3 shown in table 7) and CHO-K1 cells were expanded to a 90% of confluency in T-75 cell culture flasks, the culture medium were removed, and cells were then rinsed twice with HBSS buffer (Hanks Balanced Salt Solution, purchased from Invitrogen) and lysed with enzyme-free cell dissociation buffer (Versene solution purchased from Life technology) and harvested. Harvested cells were rinsed with HBSS buffer twice and counted before diluting with HBSS buffer to 2×10⁶ cells /mL, and 10% goat serum blocking buffer was then added, wherein the percentage is the mass percentage. Cells were incubated on ice for 30 min, and then washed twice with HBSS buffer by centrifugation. The harvested cells were resuspended with FACS buffer (HBSS+1% BSA, wherein the percentage is mass percentage) to a concentration of 2×10⁶ cells /mL. 100 μL per well of the cells was aliquoted to 96-well FACS reaction plates, and 100 μL per well of test sample—the purified TPBG antibody obtaining from Embodiment 2 was added before incubating on ice for 2 h. The plate was washed with the FACS buffer twice by centrifugation, and 100 μL per well of fluorescence (Alexa 488) labeled secondary antibody (purchased from Invitrogen) was then added and incubated on ice for 1 h. The plate was washed with the FACS buffer for three times by centrifugation, follow by resuspending in 100 μL of fixation buffer (4% (v/v) paraformaldehyde). Cells were washed with FACS buffer twice after 10 min, follow by resuspending with 100 μL of FACS buffer. The results were measured and analyzed by FACS (FACS Calibur, purchased from BD). Data analysis was performed by software (CellQuest) to obtain mean fluorescence intensity (MFI) of the cells, follow by calculating EC50 value by software (GraphPad Prism) analysis and data fitting. The analysis results were shown in Table 8 and FIGS. 7-10, and data in FIGS. 7-10 show the mean fluorescence intensity (MFI) of cells.

human TPBG-hFc = biological target: T2, human TPBG-hFc; assay: ELISA, coated human TPBG-hFc 1.0 ug/mL; antibody 200 nM
Description: The purified immunogen A (as for its method of preparation please refer to step 1 in Example 1) diluting with PBS to a final concentration of 1.0 μg/mL was aliquoted into a 96-well ELISA plate at 100 μL per well, and sealed with a parafilm and incubated at 4° C. overnight. The plate was washed twice with plate washing buffer (PBS containing 0.01% (v/v) Tween 20), and blocked with blocking buffer (PBS containing 0.01% (v/v) Tween 20 and 1% (w/w) BSA) at room temperature for 2 h. The blocking buffer was discarded, and 100 μL per well of the purified antibody obtained from Embodiment 2 was added. After incubating at 37° C. for 2 h, the plate was washed for three times with plate washing buffer (PBS containing 0.01% (v/v) Tween 20). HRP (horseradish peroxidase)-labeled secondary antibody (purchased from Sigma) was added and incubated at 37° C. for 2 h, and the plate was washed for three times using plate washing buffer (PBS containing 0.01% (v/v) Tween 20). 100 μL of TMB substrate was aliquoted into each well, incubated at room temperature for 30 min, and 100 μL of stop buffer (1.0N HCl) per well was subsequently added. A₄₅₀ₙₘ values were read using the ELISA plate reader (SpectraMax 384plus purchased from Molecular Device), and the results were shown in FIG. 6 and table 6. […] In Table 6 the IgG control herein is a mice IgG control, the data in the Table are OD₄₅₀ₘₙ values, and Blank means the OD₄₅₀ₘₙ value when there is only PBS buffer in the plate.

Binder | EC50 [1] [nM] | OD450nm (human TPBG-hFc) [OD450nm]
5G4H10G5 (antibody, V domains shown, Mouse hybridoma antibody purified from culture supernatant; also called TPBG antibody; lead antibody) VH: EVQLVESGGDLVQPGGSLKLFCAASGFTFSTYGLSWVRQTPDKRLELVATITNNDGSAYYPDSVKGRFTISRDKAKNTLFLQMTSLKSEDTAMYYCARETGFGSSYLFDYWGQGTLVTVSA VL: NIVMTQTPKFLLVSAGDRVTITCKASQSVSNDVAWYQQKPGQSPKLLIYFATNRYTGVPNRFTGSGYGTEFTFTISSVQAEDLAVYFCQQDYSSPTFGGGTKLEIK | 1.75 | 2.72
37H9C5G2 (antibody, V domains shown, Mouse hybridoma antibody purified from culture supernatant; also called TPBG antibody; lead antibody) VH: QVQLQQSDAELVRPGASVKMSCKVSGYTFTDHTIHWMKQRPEQGLEWIGYIYPRDGSGTYNEKFKGKATLTADKSSSTAYMQLNSLTSEDSAVYFCARDGSSHYWYFDVWGTGTTVTVSS VL: DIQMTQSPASLSASVGETVTITCRASEIIYNYLAWYQQKQGKSPQLLVYNAKTLAEGVPSRFSGSYSGTQFSLNINSLQSEDFGIYYCQHHHDTPLTFGAGTKLDLK | 0.94 | 2.61
39A11G5F2 (antibody, V domains shown, Mouse hybridoma antibody purified from culture supernatant; also called TPBG antibody; lead antibody) VH: QVQLQQSGAELMKPGASMRLSCKATGYTFTGYWLEWIKRRPGHGLEWIGEILPGRGSTNYNEKFKGKATFTAETSSNTAYMQLTSLTTEDSAIYYCARGGRDFDNWGQGTTLTVSS VL: DIQMTQSTSSLSASLGDRVTISCSASQGINNHLNWYQQKPDGTVKLLIYYTSSLHSGVPSRFSGSGSGTDYSLTISNLEPEDIAIYYCQQFSKLPYTFGGGTKVEMK | 2.34 | 2.55
52C9E9F6 (antibody, V domains shown, Mouse hybridoma antibody purified from culture supernatant; also called TPBG antibody; lead antibody) VH: QVQLQQSGAELMKPGASVKLSCKATGYTFTGYWIEWIKQRPGHGLEWIGEILPGRGSTDYNEKFKGKATFTADTSSNTAYMQLSSLTTEDSAIYYCTRGRLDFTYWGQGTLVTVSA VL: DIQMTQTTSSLSASLGDRVTISCSASQGIRNYLNWYQQKPDGTVKLLIYYTSSLHSGVPSRFSGSGSGTDYSLTISNLEPEDIATYYCQQYSKVPWTFGGGTKLEIK | 3.27 | 2.65
28D4E6A9 (antibody, V domains shown, Mouse hybridoma antibody purified from culture supernatant; also called TPBG antibody; lead antibody) VH: DVQLVESGGGLVRPGGSLKLSCAASGFTFSNYVMSWARQSPEKRLEWVAEISTGGSHTYYSDTVTGRFTISRDNAKKALYLEMSSLRSEDTAIYYCIMFYYGSSYSMDYWGQGTSVTVSS VL: DIQMTQSTSSLSASLGDRITISCRASQDIRNYLNWYQQKPDGTVKLLIYHTSRLHSGVPSRFSGSGSGTDYSLTISNLEQEDIATYFCQQGDTLPLTFGAGTRLELK | 0.63 | 2.6
36A10D8B12 (antibody, V domains shown, Mouse hybridoma antibody purified from culture supernatant; also called TPBG antibody; lead antibody) VH: DVQLQESGPGMVKPSQSLSLTCTVTGYSITSGYDWHWIRHFPGNKLEWMGYISYSGNTNYNPSLKSRISITHNTSKNHFFLRLNSVTTEDTATYYCARGYGNWDAMDYWGQGTSVTVSS VL: DIVMTQSQKFMSTSVGDRVSVTCKASQIVDTNVAWYQQKPGQSPKALISSASYRYSGVPDRFTGSGSGTDFTLTISNVQSEDLAEYFCQQYNSYPLTFGAGTKLELT | 0.94 | 2.51
99E12C7H1 (antibody, V domains shown, Mouse hybridoma antibody purified from culture supernatant; also called TPBG antibody; lead antibody) VH: QIQLVQSGPELKKPGETVKISCKPSGYTFTAYGLSWVKQAPGQGFQWMGWINTYSGVPTYTDDFKGRFAFSLETSAGTASLQITNLKNEDTATYFCARSSIPPFEYWGPGTTLTVSS VL: SFVMTQSPKFLLVSVGDRVTITCKASQSVSNDVAWYQQKPGQPPRVLIYFASNRYTGVPDRFTGSGYGTDFTFTISTVQAEDLALYFCQQDYSSPWTFGGGTKLEIK | 3.54 | 2.93
103E2E9C2 (antibody, V domains shown, Mouse hybridoma antibody purified from culture supernatant; also called TPBG antibody; lead antibody) VH: EVQLQQSGPVLVKPGASVKMSCEASGYSFIDYYMSWVKQSRGRSLEWIGVFNPYSGEIIYNQKFKGKATLTVDKSSSTAYMELSSLTSEDSGVYSCARLRISYYAIDYWGQGTSVAVSS VL: ENVLTQSPAIMSASPGEKVTMTCRATSSVSSGHFHWYQQKSGASPKVWIYSTSNLASGVPARFSGSGSGTSFSLTISSVEAEDVATYFCQQYSGYPLTFGGGTKLEIK | 0.85 | 2.6
106D5G3D10 (antibody, V domains shown, Mouse hybridoma antibody purified from culture supernatant; also called TPBG antibody; lead antibody) VH: EVQLVESGGGLVKPGGSLKLSCAASGFTFSDYGMHWVRQAPEKGLEWVGYISSGTYVVYYADTVKGRFTISRDNAKNTLFLQMTSLRSEDTAIYYCSTYGSNPFDYWGQGTTLTVSS VL: QLVLTQSPAIMSASPGEKVTITCSATSSVSSMHWFQQKPVTSPKLWIYSTSNLASGVPTRFSGSGSGTSYSLTISRMEAEDAATYYCQQRSGYPPIFTFGSGTKLEIK | 1.72 | 2.88
12B12C7C3 (antibody, V domains shown, Mouse hybridoma antibody purified from culture supernatant; also called TPBG antibody; lead antibody) VH: DVQLVESGGGLVQPGGSRKLSCAASGFTFSNFGMHWVRQAPEKGLEWVAYISSGSTSFYYADTVKGRFTISRDNPKNTLFLQMTSLRSEDTAMYYCSRTNSLLRGFFDAWGAGTTVTVSS VL: DIVLTQSPASLAVSLGQRATISCRASQSVSSSSYTYLHWYQQKPGQPPKLLIKSASNLESGVPARFSGTGSGTDFTLNIHPVEEEDTATYYCQHSWEIPLTFGAGTKLELK | 0.65 | 2.82
